Results on seven substances are retold here after paper PMC6204900.

In experiment [1] the target is IGF-1 receptor (in transfected mouse embryonic fibroblasts R+39) (human) (UniProt P08069).
Experiment [2] addresses human insulin receptor isoform A (IR-A) on IM-9 lymphocytes (human (endogenous in IM-9)) (UniProt P06213). The experiment in a line: radioligand binding; association kinetics; IM-9 cells (10^7/mL) in HEPES binding buffer pH 7.6 with about 0.03 nM 125I-labelled ligand at 15 °C; cells pelleted at time points; fit: association kinetics, one concentration of hot (GraphPad Prism 5) with the dissociation rate set; apparent constants.

Experiment [3] addresses human IGF-1 receptor (IGF-1R) on CHO-K1 cells stably transfected with pcDNA3-IGF-1R (human) (UniProt P08069). In words: radioligand binding; dissociation kinetics without cold ligand; CHO-R+ cells (3x10^7/mL) preincubated with about 0.03 nM 125I-labelled ligand at 15 °C ([…] analog and IGF-1, 7 h insulin), washed, diluted 40 times, 15 °C; one phase exponential decay.
In experiment [4] the target is human insulin receptor isoform A (IR-A) on IM-9 lymphocytes (human (endogenous in IM-9)) (UniProt P06213). The experiment in a line: radioligand binding; dissociation kinetics without cold ligand; IM-9 cells (3x10^7/mL) preincubated with about 0.03 nM 125I-labelled ligand at 15 °C ([…] insulin and analog, 4 h IGF-1), washed, diluted 40 times, 15 °C; one phase exponential decay.

Experiment [5] has as its target human IGF-1 receptor (IGF-1R) on CHO-K1 cells stably transfected with pcDNA3-IGF-1R (human) (UniProt P08069). The experiment in a line: radioligand binding; association kinetics; CHO-R+ cells (10^7/mL) in HEPES binding buffer pH 7.6 with about 0.03 nM 125I-labelled ligand at 15 °C; cells pelleted at time points; fit: association kinetics, one concentration of hot (GraphPad Prism 5) with the dissociation rate set; apparent constants.

Experiment [6] has as its target IGF-1 receptor (in transfected mouse embryonic fibroblasts R+39) (human) (UniProt P08069). In words: radioligand binding; whole-cell receptor-binding assay on IGF-1R null mouse embryonic fibroblasts stably transfected with human IGF-1R; each binding curve in duplicate, Kd from at least three curves; details in the supporting information.
Experiment [7] has as its target insulin receptor isoform B (human) (UniProt P06213). The experiment in a line: radioligand binding; whole-cell receptor-binding assay on IGF-1R null mouse embryonic fibroblasts stably transfected with human IR-B; each binding curve in duplicate, Kd from at least three curves; details in the supporting information.
The target in experiment [8] is insulin receptor isoform A (human (endogenous in IM-9)) (UniProt P06213). In words: radioligand binding; whole-cell receptor-binding assay on human IM-9 lymphocytes (containing IR-A); each binding curve in duplicate, Kd from at least three curves; details in the supporting information.

Usually kon stands for the rate constant with which the complex forms. Usually koff stands for a measure of how fast the partners let go of each other. Low readings indicate slow dissociation, high ones fast dissociation. As usually defined, the Kd is a measure of binding affinity in units of concentration. Read a high Kd as lower affinity.

Chain of [Gly^B31, Tyr^B32]-insulin (P01308 90-110): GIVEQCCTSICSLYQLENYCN
Chain of [Gly^B31, Tyr^B32]-insulin (P01308 other isoform, or with tags, fused parts or gaps): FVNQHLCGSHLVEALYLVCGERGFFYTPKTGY

“[Tyr^B25, Phe^B26, Asn^B27, Lys^B28, Pro^B29, Gly^B31, Tyr^B32]-insulin (from UniProt P01308 90-110) (ligand)” had an autophosphorylation of IGF-1R (immunoblot), IGF-1R-transfected mouse fibroblasts, 10 nM ligand, against insulin; not significant in the analysis of variance in experiment [1] of 3 fold.

As to “125I-[D-HisB24, GlyB31, TyrB32]-insulin (ligand)”, the figures for the on-rate constant (kon) in experiment [2] and in experiment [5] were 5.87e+07 M⁻¹ s⁻¹ and 7.83e+07 M⁻¹ s⁻¹, respectively. Moreover, the koff is 0.000107 s⁻¹ in experiment [3] and 2.83e-05 s⁻¹ in experiment [4].

The substance “[Gly^B31, Tyr^B32]-insulin (from UniProt P01308 90-110; P01308 25-54) (ligand)” registered an autophosphorylation of IGF-1R (immunoblot), IGF-1R-transfected mouse fibroblasts, 10 nM ligand, against insulin; not significant in the analysis of variance in experiment [1] of 3 fold.

In the case of “[D-His^B24, Gly^B31, Tyr^B32]-insulin (from UniProt P01308 90-110) (ligand)”, the Kd in experiment [6] was 0.89 nM.

Consider “insulin-like growth factor 2 (from UniProt P01344 25-91) (ligand)”, for which the Kd in experiment [7] turned out to be 35.5 nM; in experiment [6], 2.32 nM; in experiment [8], 2.92 nM.

On to “human insulin-like growth factor 1 (from UniProt P05019 49-118) (ligand)”, for which the Kd in experiment [7] stood at 224 nM; in experiment [8], 31.5 nM.

In turn, “[D-His^B24]-des-(B27-B30)-tetrapeptide-B26-carboxamide insulin (from UniProt P01308 90-110) (ligand)” had a Kd in experiment [7] of 0.3 nM.
